Where “and” joins values, the source holds several entries; their conditions need not be identical. Identical values can stand only once. Like-named read-outs stand apart in the source and are kept apart here.
Assays:
Experiment in all cases: single-molecule diffusometry in an ABEL trap
[1] = target: Nicotiana tabacum Rubisco activase S379C (Nt-Rca-S379C) (Nicotiana tabacum)
[2] = target: Nicotiana tabacum Rubisco activase S379C (Nt-Rca-S379C) (Nicotiana tabacum); remark: listed apart in the source
[3] = target: Nicotiana tabacum Rubisco activase S379C (Nt-Rca-S379C) (Nicotiana tabacum); remark: listed apart in the source
[4] = target: Nicotiana tabacum Rubisco activase S379C (Nt-Rca-S379C) (Nicotiana tabacum); remark: listed apart in the source
[5] = target: Nicotiana tabacum Rubisco activase S379C (Nt-Rca-S379C) (Nicotiana tabacum); remark: listed apart in the source

Q: Which results are given for “Nicotiana tabacum Rubisco activase S379C (Nt-Rca-S379C) (enzyme)”?
A: stoichiometry N [1]: 4 and 6; stoichiometry N [2]: 4 and 6 and > 6; rate of subunit exchange [3]: > 0.2 s⁻¹; equilibrium constant for hexamer formation from dimers (Kd 2-4 x Kd 4-6) [4]: 0.2 μM^2; rate of subunit exchange [4]: 0.1 s⁻¹; stoichiometry N [4]: 2; stoichiometry N [5]: 2

From paper doi:10.1101/191742
